This is an account of results in the DeepSol protein solubility set.

A short description of the data set: soluble on expression in E. coli; label from the status in PepcDB or PDB records.
With “MGSDKIHHHHHHMSIYHDVIKSEVFPALGCTEPIAVAYAASLAAERLGAEVETVTASVDPGVFKNGFAVTVPKTGGLKGNVIAAALGALIARPELKMEILSGADERLLAQAELLVSSGRATVALVKERTDLYIDVVVTGGGRTARAVLEGGHTNIVRLECDGRILLNADEPVSAVDSHAYRAVLRQMTFSEMIGLLDDLDQGDLVYLKRGVEMNLRIAEEGKQLTKVGHYVEELVRKGFLLADVVSSSKILTASASDARMAGLPYPVMSSGGSGNQGIVAILVPYNVGMFFHVPEETILRSIALSHLVNAYIKCHTGDLAPICGCAIAAGVGAAVAIVYQQAGPDMHKIDLAVNTIISDIGGMLCDGAKGGCALKVVSSTDAAIRAAYMALNGHGISEEEGFVGKSAEETIHNLSRIADKGMALVDDTMLCIMLQKRSTEP”, the “soluble on expression in E. coli” value is “not soluble”.

On to “MGSDKIHHHHHHMNNIIATILKYAGLEGKAVIPLKGATSSYVFRAGDSVFRIHTNPAWLEQEPDLVAHEVFALRATGRLGPDVENYQLTWEGEIPPWIQMTCLPGEVRLEPLNRAYLKQLAKTLVAIHQLPVPEARYQYAPYVTKRTVPFWAVQKEMWQRAVAEPPATSQQVRFIHRDFHPVNVLYESAEKYNVVDWINGCVGPIEADVAHCRLNLMLLESVEAADQFLAEYIAYSGFSYDRKWDLTAVFDFEPDTLNVYPGWKAYGKANISQGNVRERMENIVLKVYENDESGY”, for which the “soluble on expression in E. coli” value is “not soluble”.

With “MSGREFLQKLLDGERVEWKALGEIIQLEKGRQLNKDLLSSSGRYPAYNGGMSYSGFTDSYNYSENKTIISQGGASAGFVNFVTTKFYANAHCYVVLPDTEVVDNRYIYHFLKLNEERLTSCQHGAGIPALRASEITSLKIPIPCPDNPKKSLAIQAEIVRILDAFTELTAELTAELTARKKQYAYYRDRLLTFTTPPYGHPSKGGELFSLFGHPSEGGELFTPYGHSVEERELNSPSLKGWQAQPDGVVPVEWKTLGEVGHFIRGSGIQKSDFKASGVGCIHYGQIHTHYGTWTTETKSFIDPEFANRLKKAKPGDLVIATTSEDDDAVAKAVAWIGTEDVAVSTDAYIFRHTANPKYMSYFFQTDMFQEQKKPYITGTKVRRISGDNLAKILIPIPPLAEQERIVAILDQFDALTNSLTEGLPREIELRQKQYAYYRDLLFSFPKASFGGVPEGRDQFPSFGGVPEGRGGLNALEHHHHHH”, the “soluble on expression in E. coli” value was “not soluble”.

Consider “MILPNPLARRLFLHLHALAEPPTGPAKGEALLALIDRLGFVQIDSISTVARAHHMILFARRQAYRPEALDRLLAQRHLFEHWTHDAAVIPARFFPFWHHRFRRDRPRLLARWRGWQREGFEEQFDAVLARIAESGPVSAAEVGEEEERGTGGWWDWHPSKAALEYLWRVGELSITRRDSFRKVYDLTSRVIPSGWLAMDPGDAATIHWACSEALDRLGFATSGELAAFWAAASPAEAQAWCHDALARGEIVEVRVEGADGSLRRSYARPEVAALAEAAPDPSPRLRILSPFDPVLRDRARAERLFGFRYRIEVFVPEAKRTYGYYVFPILEGDRLIGRIDMRAHRESGSLRVRALWPEAGVRLGSRRLGRLGAELDRLAQFAGCDQVKFEPDWLRETLPEGSVAGDLEHHHHHH”, for which the “soluble on expression in E. coli” value is “not soluble”.

As for “DGDYIKDAVKEINYFMRDWRVDQVKSMDLRTVDIMAAAHNLMDVNEPYMLLSGYRSPQTNAMLRSRSRGVARNSLHMQGQAADLRLASRSVSQMANAAIACRAGGVGKYYRSNFVHMDCGEVRSWGG”, the “soluble on expression in E. coli” value is “not soluble”.

With “MKAIAGLTVNIKQGEFVYVVGPSGAGKSTFIKMMYREEKPSTGSINVNGLVIETLAERDVPYFRRQLGVIFQDFKLLPKLTVYENVAFALEVIEEEPDAIRERVTEVLGLVGLEDRADALPSELSGGEQQRVAIARAIVNKPKVVIADEPTGNLDIETALDIMKIFTRINERGTTIVMATHNADIVNTIRHRVIAIEGGKIVRDEIEGGYGYEG”, the “soluble on expression in E. coli” value is given as “not soluble”.

For “MDAWFEDTAMGRYVAKLEQDFFGRYLDSYRFSGMCAVQVGGPWLSLSEDVVCVPRDMSMSAENMALADVSADMLLFPHTLEGGVPSQILSEAHRILKPCGRLMLTGFNPYSLWGFSRWFDGERLPEKRFCLPLPELKRRLADVGFDIEFGKFMVYLPPVSSLGQIRFWRFMEKAGDRWWPQCAAVYGLVLVKRAAGVTPLPAWDGYLGGKALAAGAARVAD”, the “soluble on expression in E. coli” value is “not soluble”.

For “MGSDKIHHHHHHMTRAELYAVLDRFLAALDARDPTALDWAPGAHHSENNVMLEIGDGVWGTIDRLGDYRLRFADTRTRQVGYFGTVIEPIEESAFTLRLALDEAGRIAECEMLIVRQSDSGIKFENCRYWDKPILHREPEAPVSRQEMVRLSNGYFDTLQRNDGTIHTRFHPDCNRVENGVQTTRNPDFAKIVPVSALGCEEQFRMGNYRYDDDLRARRFPLVDEERGLVLAFGFIDHSGRLREFQLTDGRTVKSPVLRPHSFYISELFKIDHGMIEQIEANFITVPYRMPSPWDLL”, the “soluble on expression in E. coli” value is listed as “not soluble”.

Regarding “DDIDYANAEYYLGNTYDLVILDTVDNFQPINIGRLVDLARGGGLIIIYTNNLIKDKTFRTSIMRNGLILDEYEKRFKRKLYEHEGIFIIDVNEYIPKPFSGNTM”, the “soluble on expression in E. coli” value was “not soluble”.

As for “MFGTNGNAGIAVTDPTKQAEIYRALESLKKDESGWKKSVDSFIGPHKPSPEEQFLLLQVIEDYLNKRYHSSSQGDVSVIRTFLLHYTKNSRSSTVDQPAFLTNKMAHIFSLVFAADFPERWSSFFNDLFFSDNINDRKVAFFYLKVLLAIDTEVVNRDIQRSKNESDRNIKIKDAMREICINEIAKSWLTIANALPEDNVIQCLVLDNIASYVDWIELDLVANDYVMPLIISKFQNPATSESATAAVCSLLEKGMPAEKKVGLTLTIMTVLRSNGLLTVNDNNDEEEVTRVGSLVNTLGLVLLDVQNKLCASSILEKEQECCVQEMAGLAEPALVVLNNEDPDLSCMCIDYIRAYCSFLLKFHPNETNFIEKVIRAGLQRYVMNDDMTVGGDGEDEVEFQEFRRELRSMLNVIGLKRPEAIINAVEPWTAEVTSGGSSIPVNRIEALLNVIFHLHEIIPSNMLQSPREGISQRAARLPIVILEGLVLDGRCPAIHVLYFELACRYERLLVLQPQPVVIPHIAAAFLDQRGISISSANVRTRIVYLFCRFVKSHKTVLGPLVSEVITRLAPLLAVSPQADTNQLLSPEDQGYIFEATATLIVFGDLTSEMKSQYVGELASTLAMKFENGLVELNTARARKADEETIQAILQFMSNIIGYSSRMSKAFNNAQSMKACNCIDIYLRLIKLYLETLSPQNAFLLESTRQFAHRLVVSMENELMPYMNGIFDKLALVSTDLDSMHHLLIFCHQTVAKYKKAMLTSGVDLGNVLAIAARASLQEQENNIPAKDDSQRALLYVQRAFVQLLYTVIASDCTPALNTTPGLLDHVLESAARLALSSDQTAQKVALSCLAKISLITPSWSARTLRVALEIPSLSHITPSDAGSTLVVHEVCATLTSLHQSDPDGFTRALRELVPNGFSDQLLSALTNLKGKNLDKQVMNLYSSLRNQSAQ”, the “soluble on expression in E. coli” value is “not soluble”.

“MAKKRGKPEIDWTDDDKEIIWVSKSEIKRDSEHLKKLGAELIELTPQNLEKIPLDEDLKYAIRQAQSFKLEARRRQIQFIGKLLRNRDSAPIQDALDKVKNRHNQQQALLHKLELIRDQLINMGDASLNQLLSEYPQLDRQHLRNLIRMAQKEKQINKPAKNYHEILQYLKSELIV”: the “soluble on expression in E. coli” value is “not soluble”.

As for “SLTGQLHPAVRVADLLQHINQMKTAEGYGFKQEYESFFEGWDATKKKDKVKGSRQEPMPAYDRHRVKLHPMLGDPNADYINANYIDGYHRSNHFIATQGPKPEMVYDFWRMVWQEHCSSIVMITKLVEVGRVKCSRYWPEDSDTYGDIKIMLVKTETLAEYVVRTFALERRGYSARHEVRQFHFTAWPEHGVPYHATGLLAFIRRVKASTPPDAGPIVIHCSAGTGRTGCYIVLDVMLDMAECEGVVDIYNCVKTLCSRRVNMIQTEEQYIFIHDAILEACLCGETTIPVSEFKATYKEMIRIDPQSNSSQLREEFQTLNSVTPPLDVEECSIALLPRNRDKNRSMDVLPPDRCLPFLISTDGDSNNYINAALTDSYTRSAAFIVTLHPLQSTTPDFWRLVYDYGCTSIVMLNQLNQSNSAWPCLQYWPEPGRQQYGLMEVEFMSGTADEDLVARVFRVQNISRLQEGHLLVRHFQFLRWSAYRDTPDSKKAFLHLLAEVDKWQAESGDGRTIVHCLNGGGRSGTFCACATVLEMIRCHNLVDVFFAAKTLRNYKPNMVETMDQYHFCYDVALEYLEGLESR”, the “soluble on expression in E. coli” value is given as “not soluble”.

“MCENEEYRERFPDKHFDLETVLQAKVRPICVVPERTFIGFFHREKSKEEEEKEDVSLDFLKGVMSFDSIWEEIMKQEPEESASEHVIYIVSWNDHYFVLLVNHDAYYIIDTLGERVYEGCNQAYVLKFDQDAEIKRLPSVIKDNKADMGSQKQGGKNKYEQPERSKESEEQGEEVVVCRGKESCREYIKSFLAAIPIQQVKADMKEGLVSSFHHRLQIELYYTKHLHHRQPNMFESSTTKVTVSEATVSMTVAWLLASQFSNSGGFGCEMAELLGIKV”: the “soluble on expression in E. coli” value is on record as “soluble”.

For the sequence “DGSFQGSVFVAVDIGERKRTEQALRENEQHLKNILDSIHAGILVIDPQDHRIVDANTFALDMIGAPKGLVVDRICHNFVCSAVQGACPITDLLENMDNSERRLLRFDGTSIPILKSVVPVTYQGRKLLIESFID”, the “soluble on expression in E. coli” value is “not soluble”.

In the case of “NSFFKTGWKRFYLKWYGQDHPSAQALCPYTTELLKQFPNIKAAMFTALPPGSRLVRHRDPFAGSVRYHLGLITPNDDRCYIDVDGQQYSWRDGEAVIFDETYLHYAENTTDQNRIILFCDVERPMWFWPARVVNRIVSRVLVGAANSPN”, the “soluble on expression in E. coli” value is listed as “not soluble”.

As to “MEAYDICKFWKLDMLEEFSQIVLKGKKKIILDIPSPSQQNKSDIVSLCPADSPETCNSSIPDWLVKVMRKENGYDPKLIIKRRVLCTTDLRKNQGCLSMHLSKLEKSDFLTEDETRFLDEDFLKAKRDGLKVFLVDPESDKHVVYLKKWNGNTVWKYVLSHGWNNVIDKKIFKVNDVIEIWSFRDGSGKLCFALSSPTRCGRSSSGHSS”, the “soluble on expression in E. coli” value is reported as “soluble”.

For the sequence “MIIIMAGGKSSRMGREKPVLKIAGKEMLLWVYEQAEAVGEVLVALSRHTPRTRELCLREGIEFVDTPGRGYVKDVQWLLREFGPFISLSSDIPFVKSSDIYSLLKEFDGKVSLTGVLPLEVVPKDLTPYSYMGYAIVGINGVAKEGEKFFVFSNPLLALNVNTPRELELAKRVAEIIRVRGIR”, the “soluble on expression in E. coli” value is given as “soluble”.

As to “MSLATALVLGYSAFDLGLFSDKDPRLKLIKKAIRKDLEAMAADGVSWLVFTGSLGFEYWVLEVAQEMKTEYGFQLATIFAFETHGENWNEGNQMKLSRFKQVDFVKYAYPRYEHKGQLRDYQQFLLENTTSSYLFYDEENETKLAYFYQKMKNQEDYFIKRLTFDQLNELAENFSENEGHHHHHH”, the “soluble on expression in E. coli” value is listed as “soluble”.

Take “EEHTIIQAEFYLLPDKRGEFMFDFDGDEIFHVDIEKSETIWRLEEFAKFASFEAQGALANIAVDKANLDVMKERSNNTPDANVAPEVTVLSRSPVNLGEPNILICFIDKFSPPVVNVTWLRNGRPVTEGVSETVFLPRDDHLFRKFHYLTFLPSTDDFYDCEVDHWGLEEPLRKHWEFEE”: the “soluble on expression in E. coli” value was “soluble”.

As for “MQQDVSREHTINNGSSMADHDEHPIEQKEFYMLIGLDIGGTKIEICVLDKQGSMLYRQRIATPDNYSQFVDCVCSLIVDAEQATQPVDSIGIGLPGAVSPVTGLIKNANCTFLNGQDLSSDLQYRLGREVKLANDANCFALSEAIDGAGKESMVVFGAILGTGCGGSIVVNRQVLVGPNAICGEWGHNPLPGYHLEQDGAARYCYCGRQNCIERFISGSGFQDSYQALTGECITASEIMKRYKQQEPEAIHCYTQLIDHMARSFAGLVNVLDPDIIVLGGGLSNIDELYRDLPTATARHVFSDSAQVHFAKAVFGDSSGIRGAAWL”, the “soluble on expression in E. coli” value is “not soluble”.
